Consider four molecules from patent US20160207991A1 (Pfizer, published 2016).

Experiment [1] has as its target T1, recombinant human CXCL9 (human, UniProt Q07325 23-125).
T1 sequence (looked up): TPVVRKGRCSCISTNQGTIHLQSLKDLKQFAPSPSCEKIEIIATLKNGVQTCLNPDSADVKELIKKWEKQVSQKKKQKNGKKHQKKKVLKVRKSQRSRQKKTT
In words: ELISA (Example 7): plate coated with 1 µg/ml of the antigen, antibody at the highest concentration of the titration, anti-IgG-HRP, TMB. Background: In an ELISA, binding on a coated surface is turned into a signal by an enzyme label.
Description: (§1) NUNC plates were coated with 1 μg/ml of a neurotrophin or chemokine in 1×PBS overnight. […] Plates were washed and a 1/5000 dilution of anti-IgG-HRP (horse radish peroxidase) in blocking buffer was added for 1 h (100 μL total volume). Plates were washed and developed by addition of 3,3′,5,5′-Tetramethylbenzidine (TMB) substrate and subsequently stopped with phosphoric acid.

Experiment [2] deals with T2, recombinant human beta-NGF (human, UniProt P01138 122-241).
T2 construct: also called β-NGF; Nerve Growth Factor
Described as above.
Description: as §1

The target of experiment [3] is T3, recombinant human CXCL13 (human, UniProt O43927 23-109).
T3 sequence (looked up): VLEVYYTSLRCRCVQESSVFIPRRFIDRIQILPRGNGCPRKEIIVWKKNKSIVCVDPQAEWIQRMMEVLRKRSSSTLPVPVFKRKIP
The experiment is described as above.
Description: as §1

Experiment [4] addresses T4, recombinant human CXCL10 (human, UniProt P02778 22-98).
T4 sequence (looked up): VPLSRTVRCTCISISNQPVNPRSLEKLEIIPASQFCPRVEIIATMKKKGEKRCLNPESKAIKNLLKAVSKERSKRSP
The experiment is described as above.
Description: as §1

For experiment [5], the target named is T5, recombinant human neurotrophin-4 (human, UniProt P34130 81-210).
T5 construct: also called NT4; NT-4
T5 sequence (looked up): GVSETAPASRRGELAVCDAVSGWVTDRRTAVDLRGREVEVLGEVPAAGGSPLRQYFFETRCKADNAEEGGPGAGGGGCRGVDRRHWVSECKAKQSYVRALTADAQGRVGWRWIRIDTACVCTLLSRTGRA
The description is as above.
Description: as §1

The target in experiment [6] is T6, recombinant human neurotrophin-3 (human, UniProt P20783 139-257).
T6 construct: also called NT3; NT-3
T6 sequence (looked up): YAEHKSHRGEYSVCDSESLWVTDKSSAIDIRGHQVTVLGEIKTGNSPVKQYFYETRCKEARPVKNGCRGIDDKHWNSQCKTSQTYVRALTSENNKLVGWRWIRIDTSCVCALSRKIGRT
Described as above.
Description: as §1

The target of experiment [7] is T7, p75NTR receptor (immobilised on the SPR flow cell) (Homo sapiens (Human), UniProt P08138 29-250).
T7 construct: also called p75 neurotrophic receptor; LNGFR
T7 sequence: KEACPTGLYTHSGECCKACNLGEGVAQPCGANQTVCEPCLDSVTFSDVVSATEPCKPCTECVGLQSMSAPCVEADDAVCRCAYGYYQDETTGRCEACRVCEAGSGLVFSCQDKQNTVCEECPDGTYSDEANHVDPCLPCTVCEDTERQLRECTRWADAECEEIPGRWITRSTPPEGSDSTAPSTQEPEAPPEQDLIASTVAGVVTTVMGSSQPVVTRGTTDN
The description is as above.
Description: as §1

Experiment [8] deals with T8, endogenous rat BDNF in plasma (rat, UniProt P23363 131-249, limits assumed).
T8 construct: also called endogenous BDNF
T8 sequence (looked up): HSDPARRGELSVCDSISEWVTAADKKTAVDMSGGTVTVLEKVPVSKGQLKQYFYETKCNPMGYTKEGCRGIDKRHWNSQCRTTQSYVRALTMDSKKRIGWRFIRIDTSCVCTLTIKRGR
As to the kind of experiment: ligand-binding assay (Gyrolab) for total BDNF in plasma of dosed rats.
Description: Sample concentrations were determined by interpolation from a standard curve that was fitted using a 5-parameter logistic curve fit with 1/y² response weighting.

Experiment [9] addresses T9, human brain-derived neurotrophic factor (BDNF) (human, UniProt P23560 129-247).
T9 construct: In the HTRF assays the BDNF was biotinylated; also called hBDNF; human BDNF
T9 sequence: T8 sequence (looked up)
As to the kind of experiment: SPR, Biacore T200; human BDNF amine-coupled to CM5, antibody injected; 1:1 Langmuir; 37 C. (In general: Surface plasmon resonance follows binding to a sensor surface in real time, without labels.)
Description: (§2) All SPR experiments were performed at 37° C. and a data collection rate of 1 Hz with HBS-EP+ used as both the sample and running buffer. The resulting sensorgrams were double referenced with buffer injections and a non-derivatized flow cell surface. Rate constants were determined by applying a 1:1 Langmuir binding model using the T200 evaluation software v1.0 and the equation KD=kd/kₐ.
The dissociation phase for the highest concentration of antibody was extended to 4000 seconds to achieve a signal decay minimum of 5%. The kinetic rate constants were determined using a Langmuir 1:1 binding model and T200 evaluation software v1.0.

Experiment [10] addresses T9, human brain-derived neurotrophic factor …. As to the kind of experiment: SPR, Biacore T200; immobilised human BDNF; 37 C (same data as Table 10).
Description: as §2
Experiment [11] concerns the target T1, recombinant human CXCL9. In words: ELISA (Example 14, conditions of Example 7): plate coated with 1 µg/ml of the antigen, antibody at the highest concentration of the titration, anti-IgG-HRP, TMB.
Experiment [12] has as its target T2, recombinant human beta-NGF. The description is as above.
Experiment [13] addresses T3, recombinant human CXCL13. The experiment is described as above.
Experiment [14] addresses T4, recombinant human CXCL10. The experiment is described as above.
The target in experiment [15] is T5, recombinant human neurotrophin-4. Described as above.
Another experiment has as its target T10, recombinant CXCL3 (Homo sapiens (Human), UniProt P19876 35-107).
T10 sequence: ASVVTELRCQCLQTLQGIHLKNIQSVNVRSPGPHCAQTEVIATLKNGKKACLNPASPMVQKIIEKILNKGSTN
Described as above.

For experiment [16], the target named is T6, recombinant human neurotrophin-3. The experiment is described as above.
The target of experiment [17] is T7, p75NTR receptor (immobilised on the SPR …). The description is as above.
The target in experiment [18] is T9, human brain-derived neurotrophic factor …. As to the kind of experiment: SPR, Biacore T200; immobilised human BDNF; 37 C.
Description: as §2
The target is the same in experiment [19]. In words: competition HTRF (Example 12): 1 nM biotinylated human BDNF, europium cryptate labelled H1, SA-XL665, unlabelled antibody titrated; competitor: labelled H1; x axis is log10 of pM by the text. (Time-resolved FRET reads energy transfer from a long-lived donor to a nearby acceptor.)
Description: Reagents were added sequentially on the MiniTrak Liquid Handling Platform (Perkin-Elmer) into 384-well low volume black plates (Nunc).
For experiment [20] the target is unchanged. As to the kind of experiment: cell-based or functional assay.

Changes are numbered by the printed parent chain.

T2 sequence (P01138 122-241 limits assumed): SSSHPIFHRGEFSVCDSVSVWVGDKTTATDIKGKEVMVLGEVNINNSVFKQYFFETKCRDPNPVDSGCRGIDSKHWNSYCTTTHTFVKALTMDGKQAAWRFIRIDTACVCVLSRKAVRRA

B1: anti-BDNF antibody R3BH1 (chicken-human chimeric IgG) (antibody, V domains shown)
VH: AVTLDESGGGLQTPGGGLSLVCKASGFDFSSYDMHWVRQAPGKGLEWVAGIDDGGSDTYYGSAVKGRATISRDNGQSTVRLQLNNLRAEDTGTYYCAKSSYDISWNGHVENIDAWGHGTEVIVSS
VL: ALTQPTSVSTNLGGTVEITCSGAGSGYGYGWFQQKSPGSAPVTVIYSNDKRPSDIPSRFSGSKSGSTGTLTITGVQAEDEAVYFCGTYDSTDAGYAIFGAGTTLTVL
notes: also called R3BH1 IgG; chimeric R3BH1
Take B1: the binding result (with recombinant human CXCL9 [1]; in [2]; with recombinant human CXCL13 [3]; with recombinant human CXCL10 [4]; in experiment [5]; in experiment [6]) was “no binding (tested: 300 µg/mL)” in each case. Further, the binding result in [7] is “no binding (tested: 300 µg/mL)”; in experiment [8] it was “binds”. The Kd in experiment [9] and in [10] was 34.4 nM each time. For the same molecule, the “T1/2” value in experiment [9] and in [10] was 68 s in each case. Besides, the koff in [9] and in [10] was 0.0103 s⁻¹ each time. Also, the kon – broadly, the second-order rate constant of association – in experiment [9] turned out to be 303000 M⁻¹ s⁻¹; in experiment [10], 300000 M⁻¹ s⁻¹.

B2: humanised affinity matured anti-BDNF antibody B30 (antibody, V domains shown)
VH: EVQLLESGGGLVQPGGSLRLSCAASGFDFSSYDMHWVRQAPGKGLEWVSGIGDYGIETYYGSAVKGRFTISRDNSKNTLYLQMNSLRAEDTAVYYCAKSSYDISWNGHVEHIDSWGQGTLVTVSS
VL: SSELTQPPAVSVALGQTVRITCSGAGSGYGYGWYQQKPGQAPVTVIYSNDKRPSGIPDRFSGSSSGNTASLTITGAQAEDEADYYCGTYVSAYYGYAIFGGGTKLTVL
With B2, the binding result (in the experiment with recombinant human CXCL9 [11]; in experiment [12]; in the experiment with recombinant human CXCL13 [13]; with recombinant human CXCL10 [14]; in [15]; with recombinant CXCL3) was “no binding (tested: 300 µg/mL)” each time. The binding result in experiment [16] is given as “no binding (tested: 300 µg/mL)”; in [17], “no binding (tested: 300 µg/mL)”; in experiment [8], “binds”. Further, the Kd (in general, the free concentration of one partner at which half of the binding sites on the other are occupied at equilibrium, for simple one-to-one binding) in experiment [18] was 0.12 nM. For the same molecule, the “T1/2” value in experiment [18] came to 5.58 h. Moreover, the koff (usually a measure of how fast the partners let go of each other) in [18] was 3.5e-05 s⁻¹. Further, the kon in [18] worked out at 290000 M⁻¹ s⁻¹. For the same molecule, the “IC50 (read off the curve)” value in experiment [19] was ~1000 pM. Also, the “PathHunter pTrkB assay in U2OS TrkB/p75NTR cells, 300 pM BDNF” value (from here on “PathHunter pTrkB assay”) in experiment [20] came to 0.54 nM. The “pERK assay in U2OS TrkB/p75NTR cells, 150 pM BDNF” value (“pERK assay” for short) in [20] was determined as 1.3 nM.

B3: humanised affinity-optimized anti-BDNF antibody B18 (antibody, V domains shown)
VH: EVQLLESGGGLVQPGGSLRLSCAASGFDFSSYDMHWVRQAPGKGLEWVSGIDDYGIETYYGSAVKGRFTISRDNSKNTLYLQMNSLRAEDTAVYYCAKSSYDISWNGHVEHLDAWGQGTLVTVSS
VL: B2 VL with S23Q, A25D, G26S, S48G, N49K, D50N, K51N
B3: the binding result (with recombinant human CXCL9 [11]; in experiment [12]; with recombinant human CXCL13 [13]; in the experiment with recombinant human CXCL10 [14]; in experiment [15]; with recombinant CXCL3) was “no binding (tested: 300 µg/mL)” each time. The binding result in experiment [16] and in [17] was “no binding (tested: 300 µg/mL)” throughout. In [18], this molecule registered a Kd of 0.0994 nM. Moreover, in [18], the “T1/2” value came out at 7.03 h. In experiment [18], this molecule gave a koff of 2.8e-05 s⁻¹. This molecule also yielded a kon in [18] of 290000 M⁻¹ s⁻¹. Also, the “IC50 (read off the curve)” value in experiment [19] was ~600 pM. Also, the “PathHunter pTrkB assay” value in [20] was 0.29 nM. Besides, the “pERK assay” value in experiment [20] was determined as 0.95 nM.

B4: humanised affinity-optimized anti-BDNF antibody B20 (antibody, V domains shown)
VH: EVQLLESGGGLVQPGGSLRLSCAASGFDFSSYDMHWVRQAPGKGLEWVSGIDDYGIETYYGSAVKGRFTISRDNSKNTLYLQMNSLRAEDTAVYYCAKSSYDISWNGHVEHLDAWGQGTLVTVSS
VL: B2 VL with V90D, A92T, Y93D, Y94A
As to B4, the binding result (in the experiment with recombinant human CXCL9 [11]; in [12]; in the experiment with recombinant human CXCL13 [13]; with recombinant human CXCL10 [14]; in [15]; with recombinant CXCL3) was “no binding (tested: 300 µg/mL)” in each case. In addition, the binding result in experiment [16] and in [17] was “no binding (tested: 300 µg/mL)” throughout. In experiment [18], this molecule showed a Kd of 0.55 nM. Also, the “T1/2” value in experiment [18] was determined as 1.26 h. The molecule also displayed a koff in experiment [18] of 0.000154 s⁻¹. Also, the kon in experiment [18] amounted to 280000 M⁻¹ s⁻¹. In addition, the “IC50 (read off the curve)” value in experiment [19] was ~1000 pM. In addition, the “PathHunter pTrkB assay” value in [20] amounted to 0.31 nM. The “pERK assay” value in experiment [20] turned out to be 1.1 nM.
